Laboratory results as given in FireProtDB (doi:10.1021/bi9621829).

Details: Homo sapiens; pH 2.7; Thermal; DSC; glycine 0.05 M; reversible: yes; whole UniProt chain shown

B1: Lysozyme C wild type, P61626 (protein)
chain: MKALIVLGLVLLSVTVQGKVFERCELARTLKRLGMDGYRGISLANWMCLAKWESGYNTRATNYNAGDRSTDYGIFQINSRYWCNDGKTPGAVNACHLSCSALLQDNIADAVACAKRVVRDPQGIRAWVAWRNRCQNRDVRQYVQGCGV
  Tm: 64.9 °C
  heat capacity change of unfolding: 1.58 kcal/mol/K
  unfolding enthalpy (calorimetric): 114 kcal/mol
  unfolding enthalpy (van 't Hoff): 120 kcal/mol
